Measured values taken from patent US20230106131A1 (OHIO STATE INNOVATION FOUNDATION, published 2023).
One block for each binder: values may come before it. Numbered stars: 1 amine (or outer) side, 2 acyl side, 3 side chain; on linkers, the order of the positions; unused ones are H or OH. Bridge positions count the residues as written; N and C are the ends. Square brackets hold non-standard residues; d marks the D form. Side chains are listed from the residue outwards. Ends that are not written are not given here. * marks the point of attachment. aminooxyacetyl = aminooxyacetyl (from Boc-aminooxyacetyl acylation of Lys side-chain amine), NOCC(=O)*; 2Nal = N[C@@H](Cc1ccc2ccccc2c1)C(=O)O; mXylylene = c1cc(C[*:1])cc(C[*:2])c1; CH2COCH2 = O=C(C[*:1])C[*:2]; hCys = N[C@@H](CCS)C(=O)O; AEEA = NCCOCCOCC(=O)O

What was measured:
[1] = molecular target: T1, GST-MDM2 (human MDM2 residues 17-125) (human, UniProt Q00987 17-125); assay: direct binding of the FITC-labeled peptide to MDM2
T1 construct: range 17-125; No removal of GST is reported; not shown: glutathione S-transferase (GST) tag encoded by vector pGEX-6P-2

[2] = molecular target: T1, GST-MDM2 (human MDM2 residues 17-125); assay: fluorescence anisotropy competition with FITC-labeled peptide 1 for MDM2
[3] = molecular target: T1, GST-MDM2 (human MDM2 residues 17-125); assay: ratio of KD values of FITC-labeled peptides
[4] = molecular target: T1, GST-MDM2 (human MDM2 residues 17-125); assay: direct binding of the FITC-labeled peptide to MDM2; remark: listed apart in the source
[5] = molecular target: T1, GST-MDM2 (human MDM2 residues 17-125); assay: direct binding of the FITC-labeled peptide to MDM2 (the text differs from Table 7)

Kd [1]: 0.365 µM
B1: peptide 13, Ac-EETFCHYWCQLTS-miniPEG-K(FITC)-NH2, stapled with BBA-CPP9 (peptide)
peptide 1: EETFCHYWCQLTS
peptide 2: FXRRRRQ
modifications: head-to-tail cyclic; D-Phe at 1, L-2-naphthylalanine at 2, D-Arg at 4 and 6; miniPEG-Lys linker, with the Lys side chain acylated by the BBA staple; N-terminal acetyl; Cys 5 and Cys 9 joined by a 3,5-dimethylbenzoyl (BBA) staple that carries CPP9; C-terminal miniPEG-Lys(FITC) amide

Kd [1]: 0.225 µM | fold decrease of MDM2 binding affinity against peptide 10 [3]: 6 fold
B4: peptide 11, Ac-ETFCHYWCQLTS-miniPEG-K(FITC)-NH2, stapled with BBA-CPP9 (peptide)
peptide 1: ETFCHYWCQLTS
peptide 2: FXRRRRQ
modifications: head-to-tail cyclic; D-Phe at 1, L-2-naphthylalanine at 2, D-Arg at 4 and 6; miniPEG-Lys linker, with the Lys side chain acylated by the BBA staple; N-terminal acetyl; Cys 4 and Cys 8 joined by a 3,5-dimethylbenzoyl (BBA) staple that carries CPP9; C-terminal miniPEG-Lys(FITC) amide

Kd [1]: 0.187 µM
Binder: Ac-EETFCHYWCQLTS-{AEEA-K(FITC)-NH2} (linker 5-9 via mXylylene, No CPP) [peptide 12, Ac-EETFCHYWCQLTS-miniPEG-K(FITC)-NH2, xylene-stapled]

Kd [1]: 0.036 µM | fold improvement of binding affinity against peptide 6 [3]: 5 fold
Binder: Ac-ETFCHYWCQLTS-{AEEA-K(FITC)-NH2} (linker 4-8 via mXylylene, No CPP) [peptide 10, Ac-ETFCHYWCQLTS-miniPEG-K(FITC)-NH2, xylene-stapled]

Continued, binder first:

B2: peptide 5 (DCA-stapled peptide 2 conjugated to CPP9 through an oxime, stereoisomer 2, unlabeled) (peptide)
peptide 1: LTF[hCys]HYW[hCys]QLTS
peptide 2: [dF][2Nal]R[dR]R[dR]Q([AEEA-Lys-aminooxyacetyl])
modifications: thioether (positions not given here) via CH2COCH2; not fully specified (bridges); also: oxime stereoisomer 2 (peak 2), Z/E not determined, further groups not given here, head-to-tail to a chain's N/C-terminus
notes: also called 3-1-1-DCA-CP9 peak2
IC50 [2]: 0.201 µM

B3: peptide 7, Ac-LTFCHYWCQLTS-miniPEG-K(FITC)-NH2, stapled with BBA-CPP9 (peptide)
peptide 1: LTFCHYWCQLTS
peptide 2: FXRRRRQ
modifications: head-to-tail cyclic; D-Phe at 1, L-2-naphthylalanine at 2, D-Arg at 4 and 6; miniPEG-Lys linker, with the Lys side chain acylated by the BBA staple; N-terminal acetyl; Cys 4 and Cys 8 joined by a 3,5-dimethylbenzoyl (BBA) staple that carries CPP9; C-terminal miniPEG-Lys(FITC) amide
Kd [1]: ~0.3 µM | fold decrease of MDM2 binding affinity against peptide 6 [3]: ~2 fold

B5: peptide 4 (DCA-stapled peptide 2 conjugated to CPP9 through an oxime, stereoisomer 1, unlabeled) (peptide)
peptide 1: LTF[hCys]HYW[hCys]QLTS
peptide 2: [dF][2Nal]R[dR]R[dR]Q([AEEA-Lys-aminooxyacetyl])
modifications: thioether (positions not given here) via CH2COCH2; not fully specified (bridges); also: oxime stereoisomer 1 (peak 1), Z/E not determined, further groups not given here, head-to-tail to a chain's N/C-terminus
notes: Peptides 4 and 5 are the two isomers separated by HPLC; also called 3-1-1-DCA-CP9 peak1
IC50 [2]: 0.22 µM

B6: peptide 2 (PDI with homocysteine at Glu-4 and Ala-8, stapled with DCA, FITC-labeled) (peptide)
peptide: LTFXHYWXQLTS
modifications: not fully specified; homocysteine at 4 and 8, joined by a 1,3-dichloroacetone (DCA) staple; FITC label; the rest of the structure only in drawing CHEM-US-00019
notes: X stands for homocysteine; also called 3-1-1-DCA
Kd [4]: 0.144 µM

B7: peptide 6, Ac-LTFCHYWCQLTS-miniPEG-K(FITC)-NH2, stapled (peptide)
peptide: Ac-LTFCHYWCQLTS-{AEEA-K(FITC)-NH2}
modifications: bridge 4-8; not fully specified (bridges); printed as Ac-LTFCHYWCQLTS-miniPEG-K(FITC)-NH
notes: No CPP
Kd [1]: 0.19 µM | fold decrease of MDM2-binding affinity against peptide 1 [3]: ~2.5 fold

Binder: Ac-LTF[hCys]HYW[hCys]QLTS-{AEEA-K(FITC)-NH2} (bridge 4-8; not fully specified (bridges), No CPP) [peptide 8, Ac-LTFhCHYWhCQLTS-miniPEG-K(FITC)-NH2, stapled]
Kd [1]: 0.015 µM | Kd [5]: 0.014 µM | fold improvement of MDM2 binding affinity against peptide 1 [3]: 5 fold

B8: peptide 3 (PDI with homocysteine at His-5 and Gln-9, stapled with DCA, FITC-labeled) (peptide)
peptide: LTFEXYWAXLTS
modifications: not fully specified; homocysteine at 5 and 9, joined by a 1,3-dichloroacetone (DCA) staple; FITC label; the rest of the structure only in drawing CHEM-US-00020
notes: X stands for homocysteine
Kd [4]: 0.171 µM
